{
  "source": "patent US6087121A",
  "about": "“Chemiluminescent detection of heme proteins in biological samples” (Mayo Foundation for Medical Education and Research, priority 1999, dated 2000)",
  "molecules": {"B1": {"name": "Myeloperoxidase: myeloperoxidase obtained from Calbiochem (protein, UniProt P05164 165-745, looked up)", "Myeloperoxidase": "VTCPEQDKYRTITGMCNNRRSPTLGASNRAFVRWLPAEYEDGFSLPYGWTPGVKRNGFPVALARAVSNEIVRFPTDQLTPDQERSLMFMQWGQLLDHDLDFTPEPAARASFVTGVNCETSCVQQPPCFPLKIPPNDPRIKNQADCIPFFRSCPACPGSNITIRNQINALTSFVDASMVYGSEEPLARNLRNMSNQLGLLAVNQRFQDNGRALLPFDNLHDDPCLLTNRSARIPCFLAGDTRSSEMPELTSMHTLLLREHNRLATELKSLNPRWDGERLYQEARKIVGAMVQIITYRDYLPLVLGPTAMRKYLPTYRSYNDSVDPRIANVFTNAFRYGHTLIQPFMFRLDNRYQPMEPNPRVPLSRVFFASWRVVLEGGIDPILRGLMATPAKLNRQNQIAVDEIRERLFEQVMRIGLDLPALNMQRSRDHGLPGYNAWRRFCGLPQPETVGQLGTVLRNLKLARKLMEQYGTPNNIDIWMGGVSEPLKRKGRVGPLLACIIGTQFRKLRDGDRFWWENEGVFSMQQRQALAQISLPRIICDNTGITTVSKNNIFMSNSYPRDFVNCSTLPALNLASWREAS"}},
  "key": {"[1]": {"test_system": "Hb", "assay": "S/N ratios of different chemiluminescent substrates with Hb", "format": "biochemical, human", "protocol": "(§1) Centricon ultrafiltration filters were obtained from Amicon (Daven, Mass.). Polystyrene tubes (5.0 mL volume, 75×12 mm) used for the assay were manufactured by Sarstedt (Arlington Heights, Ill.). The chemiluminescent substrate, 7-dimethylamino-naphthalene-1,2-dicarbonic acid-hydrazide (7-DNH) was purchased from Boehringer Mannheim (Indianapolis, Ind.). PS-1 acridan substrate (solution A and solution B) was obtained from Lumigen Inc. (Southfield, Mich.). […] Tween-20 and Sodium Chloride were purchased from Fisher Scientific (Fair Lawn, N.J.). General laboratory chemicals such as, boric acid, sodium acetate, Trizma base, HEPES, hydrogen peroxide (H2 O2) solution (30.0%), human hemoglobin, catalase, 6-amino-2,3-dihydro-1,4-phthallazinedione (4-aminophthalhydrazide), N-(4-Aminobutyl)-N-ethyl-isoluminol, Triton X-100, (3-[3-cholamidopropyl)dimethylammonio]-1-propanesulfonate) (CHAPS), hydrogen disulfite, methimazole, ofloxacin, ascorbic acid, ammonium chloride, EDTA, Hb, bilirubin, and lactoperoxidase (LPO) were purchased from Sigma Chemical Company (St. Louis, Mo.). Human heart myoglobin and myeloperoxidase were obtained from Calbiochem (La Jolla, Calif.) Thyroid peroxidase (TPO) was purchased from O.E.M. Concepts, Inc. (Toms River, N.J.). Eosinophil peroxidase was provided by Dr. Greipp (Mayo Clinic). Fresh EDTA anticoagulated blood was collected from donors showing no signs of sickness and washed with physiological saline to isolate RBC.\n(§2) Fresh urine specimens were obtained in routine commercial collection vessels. The specimens were, either, analyzed immediately or stored at 4° C. until analysis. The urine samples were prepared for analysis by adding CTAC to produce a 0.1% solution, unless otherwise noted, in order to lyse the erythrocytes, thereby releasing hemoglobin. The assays were performed in a 75×12 mm polystyrene tube. The assay solutions were prepared by adding to each tube 294 μL of high ionic strength buffer, 5.0 μL of the prepared urine samples or standards, and […] of substrate (0.4 mM solution of 7-DNH), unless otherwise noted. […] The standard curve was obtained by plotting chemiluminescence emission in Relative Light Units (RLU) versus Hb concentration (μg/mL) or number of RBCs (#RBC/high power field (hpf)). Cell counts were determined with the Yellow Iris® instrument and confirmed by a manual hemocytometer count.\n(§3) The substrate (7-DNH) and the ultrafiltered urine were prepared as described above. The kinetics of chemiluminescence was determined by monitoring the chemiluminescence signal over a 20 second time period following addition of the substrate (7-DNH) to ultrafiltered urine. Measurements were performed either in the presence or absence of Hb. Experiments performed in the absence of Hb provide background measurements in relative light units (RLU)."}, "[2]": {"test_system": "Mb", "assay": "S/N ratios of different chemiluminescent substrates with Mb", "format": "biochemical, human", "details": "signal integrated over first five seconds", "protocol": "as §1, §2\nas §3, with “Experiments performed in the absence of Hb provide background measurements in relative light units (RLU).” left out"}, "[3]": {"test_system": "Hb", "assay": "Chemiluminescence emission kinetics of 7-DNH with Hb", "format": "biochemical, human", "details": "Hb in ultrafiltered urine, after H2O2", "protocol": "as §3"}, "[4]": {"test_system": "Hb", "assay": "Performance characteristics of Hb assay (precision, linearity, recovery, stability)", "parameters": "species or system human", "details": "with detergent and substrate", "protocol": "Ultrafiltered urine was prepared from a pool of fresh urine specimens by ultrafiltration through Centriprep-10 at 3,000×g in a Beckman J2-HC centrifuge (Beckman Instruments, Calif.). This treatment separates all biomolecules with molecular weight greater than 10,000 daltons so that the ultrafiltered urine is devoid of Hemoglobin (Hb) and Myoglobin (Mb). Stock standards were prepared with the ultrafiltrate containing known quantities of, either purified Hb or washed, packed RBCS. A cell count of the stock RBC standard was determined by the Yellow IRIS® Automated Imaging System (Independent Research Imaging Systems, Chatsworth, Calif.). Cells in urine are imaged under laminar flow conditions. Up to 80 images of cells are captured using a high speed charged-coupled device camera. Cell images are then identified and quantified. […] All chemiluminescence measurements were determined using a Berthold AutoLumat, LB 953 (EG&G Berthold, Aliquippa, Pa.).\nFresh urine specimens were obtained in routine commercial collection vessels. The specimens were, either, analyzed immediately or stored at 4° C. until analysis. […] The emission of light was measured over five seconds following automatic injection of 300 μL of 5% hydrogen peroxide (pH 3.25). […] Cell counts were determined with the Yellow Iris® instrument and confirmed by a manual hemocytometer count. […]"}, "[5]": {"target": "T1, MPO (Homo sapiens, UniProt P05164)", "T1 sequence (P05164 49-745)": "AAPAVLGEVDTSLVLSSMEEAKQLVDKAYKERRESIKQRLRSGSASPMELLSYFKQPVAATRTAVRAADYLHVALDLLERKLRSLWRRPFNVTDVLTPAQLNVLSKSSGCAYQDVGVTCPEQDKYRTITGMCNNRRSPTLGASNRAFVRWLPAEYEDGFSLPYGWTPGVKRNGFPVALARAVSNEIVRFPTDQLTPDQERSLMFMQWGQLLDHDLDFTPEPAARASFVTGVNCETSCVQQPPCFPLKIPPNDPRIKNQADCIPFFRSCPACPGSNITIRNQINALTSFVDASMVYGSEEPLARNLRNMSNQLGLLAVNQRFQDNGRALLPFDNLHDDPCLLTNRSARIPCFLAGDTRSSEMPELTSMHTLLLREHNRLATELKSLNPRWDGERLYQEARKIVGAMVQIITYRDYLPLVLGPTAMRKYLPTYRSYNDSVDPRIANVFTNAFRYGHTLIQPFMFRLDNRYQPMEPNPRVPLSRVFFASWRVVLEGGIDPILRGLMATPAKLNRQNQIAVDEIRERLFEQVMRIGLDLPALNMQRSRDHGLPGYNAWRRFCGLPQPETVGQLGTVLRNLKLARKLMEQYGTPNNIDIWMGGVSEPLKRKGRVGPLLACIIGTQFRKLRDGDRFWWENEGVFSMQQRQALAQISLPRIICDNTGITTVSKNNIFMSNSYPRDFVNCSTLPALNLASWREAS", "assay": "Effects of potential interfering substances in WBC (MPO, PS-1) assay", "format": "biochemical", "details": "Hb <10 μg/mL"}, "[6]": {"target": "T1, MPO", "assay": "Effects of potential interfering substances in WBC (MPO, PS-1) assay", "format": "biochemical", "details": "level giving signal equal to 5 WBC/high power field; highest tested: hemoglobin 250, myoglobin 200 μg/mL", "protocol": "(§4) Urine samples were diluted 1:4 into distilled water to minimize inhibitory effects observed with hyperosmolal urines. Two μL of diluted urine were added to 12×75 mm polystyrene test tube containing 50 μL of the PS-1 solution. The tubes were incubated at 37° C. for 5 minutes. MPO activity was determined by chemiluminescence emission using a Turner TD-20e luminometer maintained at 37° C. Leukocyte counting was performed manually by using a hemacytometer chamber (Kova Glasstic slide, Hycor, Irvine, Calif.) on each urine sample to determine the number of cells/mL.\nSeveral possible interfering substances were added to urine and tested for inhibitory effects. Several common medications were also tested for potential inhibitory effects. […] Hb at concentrations of >10 μg/mL and Mb at concentrations >2 μg/mL were detected by the PS-1 substrate as the chemiluminescence emission was above the normal urine background. Samples grossly populated with bacteria caused slight inhibition of the MPO activity. Urine samples may contain many epithelial cells, casts, crystals, and numerous artifacts but none of these appear to interfere with the chemiluminescence emission from MPO."}, "[7]": {"test_system": "leukocytes", "assay": "Stability of leukocytes in urine with ofloxacin", "format": "cell-based", "details": "100 μg/ml ofloxacin, 4° C.", "protocol": "(§5) Intra- and inter-assay imprecision was performed for MPO standards, WBC standards and 3 urine samples. Intra- and inter-assay imprecision tests were performed as described for the Hb assay in Example 7. The effect of time on the stability of enzyme activity in the leukocytes was examined. The effect of adding a quinoline antimicrobial agent, ofloxacin, was also studied with respect to its stabilization of the leukocytes.\nStability of leukocytes in the urine over time was improved by storing the urine samples at 4° C. The addition of 100 μg/ml of ofloxacin kept the leukocytes intact up to 20 hours later when the urines were maintained at 4° C. (FIG. 14)."}, "[8]": {"test_system": "RBC", "assay": "Effectiveness of lysing agents in RBC assay", "format": "cell-based, human", "details": "saponin 0.2 mg/mL, 30 second time period; mellitin 0.85 mg/mL; CTAC 0.1%", "protocol": "as §2"}, "[9]": {"test_system": "MPO", "assay": "Effect of temperature/time on chemiluminescence emission from MPO with PS-1", "format": "biochemical", "protocol": "as §4\nThe kinetics of chemiluminescence emission from MPO at 37° C. was followed over time using several urine samples diluted 4-fold in water (FIG. 11). […] Assays in Examples 10-16 were performed at 37° C., and chemiluminescence emission determined at 5 minutes."}, "[10]": {"target": "T1, MPO", "assay": "Performance characteristics of WBC assay, MPO standard", "details": "listed as MPO", "protocol": "as §4, §5"}, "[11]": {"test_system": "Hb", "assay": "Interference studies in Hb assay (7-DNH chemiluminescence)", "format": "biochemical, human", "protocol": "Numerous potential interfering substances, which either enhance or quench the signal generated by cyclic hydrazides, were evaluated. The effects of these potentially interfering substances on light emission was investigated at varying concentrations of the interfering composition. Assays were performed using serial dilutions of the potential interfering compositions in ultrafiltered urine at a fixed concentration of Hb. Comparisons of chemiluminescence emission were made between a reference solution (Hb in ultrafiltered urine) without added interfering compositions and solutions with added interferant.\nGenerally, the value of 3 RBC per high power field is the normal cutoff point.\nBilirubin and uric acid were examined as a possible negative interfering compositions because of their chemical structure which may quench energy emitted."}},
  "note": "Several values for one entry are separate records, joined by “and”; a condition that tells them apart may be missing. Identical values can stand only once.",
  "data": [
    {"molecule": "CN(C)c1ccc2ccc3c(=O)[nH][nH]c(=O)c3c2c1", "note": "[7-DNH, 7-dimethylamino-naphthalene-1,2-dicarbonic acid-hydrazide]", "values": [
      {"measurement": "sensitivity compared to other substrates tested", "setting": "[1]; by signal to noise ratio", "result": "most sensitive"},
      {"measurement": "S/N for Hb", "setting": "[1]; signal integrated over first five seconds", "result": 589},
      {"measurement": "S/N for Mb", "setting": "[2]", "result": 316},
      {"measurement": "time of peak emission", "setting": "[3]", "result": 2, "unit": "s"}
    ]},
    {"molecule": "Hemoglobin: human hemoglobin purchased from Sigma", "values": [
      {"measurement": "stability of Hb in the samples during the reaction", "setting": "[4]", "result": "up to 25 minutes"},
      {"measurement": "interference with PS-1 assay", "setting": "[5]", "result": "did not interfere"},
      {"measurement": "Interference", "setting": "[6]", "result": "> 10", "unit": "µg/mL"}
    ]},
    {"molecule": "CC1COc2c(N3CCN(C)CC3)c(F)cc3c(=O)c(C(=O)O)cn1c23", "note": "(stereo not drawn) [ofloxacin]", "values": [
      {"measurement": "leukocytes kept intact in urine", "setting": "[7]", "result": "up to 20 hours"}
    ]},
    {"molecule": "Mellitin: lysing agent", "values": [
      {"measurement": "effectiveness as lysing agent", "setting": "[8]", "result": "nearly as effective as 0.1% CTAC"}
    ]},
    {"molecule": "B1", "values": [
      {"measurement": "change in RLU (constant chemiluminescence emission)", "setting": "[9]; 37° C., between 3 and 20 minutes", "result": "less than 5%"},
      {"measurement": "time of maximum light emission", "setting": "[9]; room temperature", "result": 15, "unit": "min"},
      {"measurement": "CV%, MPO Standard", "setting": "[10]; Table 10, intra-assay precision, 0.01% Triton incorporated", "result": "2.05% and 3.56% and 4.33% and 4.63%"},
      {"measurement": "CV%, MPO Standard", "setting": "[10]; Table 11, 0.01% Triton incorporated", "result": "6.36% and 8.39% and 8.26% and 5.50%"},
      {"measurement": "Level of Interference (in words)", "setting": "[11]; highest conc: ascorbic acid 10, bilirubin 10, Cu++/Mn++ 40, sodium azide 500 μg/mL, uric acid 1 mg/mL", "result": "only interfere at very high concentrations"},
      {"measurement": "Level of Interference", "setting": "[11]; level producing a signal equivalent to 3 RBC per high power field, fixed Hb concentration", "result": "> 6.2", "unit": "µg/mL"}
    ]}
  ]
}
